# Data reported in patent US20240294895A1, “ENZYMATIC COMPOSITIONS FOR CARBOHYDRATE ANTIGEN CLEAVAGE ON DONOR ORGANS, METHODS AND USES ASSOCIATED THEREWITH” (THE UNIVERSITY OF BRITISH COLUMBIA, priority 2018, published 2024).
# B1: Flavonifractor plautii GalNAcDeacetylase (FpGalNAcDeAc), full length, SEQ ID NO: 2, 4, 5 (Flavonifractor plautii) (protein)
# chain: MGHHHHHHHHHHSSGADSSESALNKAPGYQDFPAYYSDSAHADDQVTHPDVVVLEEPWNGYRYWAVYTPNVMRISIYENPSIVASSDGVHWVEPEGLSNPIEPQPPSTRYHNCDADMVYNAEYDAMMAYWNWADDQGGGVGAEVRLRISYDGVHWGVPVTYDEMTRVWSKPTSDAERQVADGEDDFITAIASPDRYDMLSPTIVYDDFRDVFILWANNTGDVGYQNGQANFVEMRYSDDGITWGEPVRVNGFLGLDENGQQLAPWHQDVQYVPDLKEFVCISQCFAGRNPDGSVLHLTTSKDGVNWEQVGTKPLLSPGPDGSWDDFQIYRSSFYYEPGSSAGDGTMRVWYSALQKDTNNKMVADSSGNLTIQAKSEDDRIWRIGYAENSFVEMMRVLLDDPGYTTPALVSGNSLMLSAETTSLPTGDVMKLETSFAPVDTSDQVVKYTSSDPDVATVDEFGTITGVSVGSARIMAETREGLSDDLEIAVVENPYTLIPQSNMTATATSVYGGTTEGPASNVLDGNVRTIWHTNYAPKDELPQSITVSFDQPYTVGRFVYTPRQNGTNGIISEYELYAIHQDGSKDLVASGSDWALDAKDKTVSFAPVEAVGLELKAIAGAGGFGTAAELNVYAYGPIEPAPVYVPVDDRDASLVFTGAWNSDSNGSFYEGTARYTNEIGASVEFTFVGTAIRWYGQNDVNFGAAEVYVDGVLAGEVNVYGPAAAQQLLFEADGLAYGKHTIRIVCVSPVVDFDYFSYVGE
# B2: Flavonifractor plautii GalNAcDeacetylase FpGalNAcDeAc_D1min, WT (Flavonifractor plautii) (protein)
# chain: ADSSESALNKAPGYQDFPAYYSDSAHADDQVTHPDVVVLEEPWNGYRYWAVYTPNVMRISIYENPSIVASSDGVHWVEPEGLSNPIEPQPPSTRYHNCDADMVYNAEYDAMMAYWNWADDQGGGVGAEVRLRISYDGVHWGVPVTYDEMTRVWSKPTSDAERQVADGEDDFITAIASPDRYDMLSPTIVYDDFRDVFILWANNTGDVGYQNGQANFVEMRYSDDGITWGEPVRVNGFLGLDENGQQLAPWHQDVQYVPDLKEFVCISQCFAGRNPDGSVLHLTTSKDGVNWEQVGTKPLLSPGPDGSWDDFQIYRSSFYYEPGSSAGDGTMRVWYSALQKDTNNKMVADSSGNLTIQAKSEDDRIWRIGYAENSFVEMMRVLLDDPGYTTPALVSGNSLMLSAETTSLPTGDVMKLETSFAPVDTSDQVVKYTSSDPDVATVDEFGTITGVSVGSARIMAETREGLSDDLEIAVVENPYTLIPQSNMTATATSVYGGTTEGPASNVLDGNVRTIWHTNYAPKDELPQSITVSFDQPYTVGRFVYTPRQNGTNGIISEYELYAIHQDGSKDLVASGSDWALDAKDKTVSFAPVEAVGLELKAIAGAGGFGTAAELNVYAYGPIEPAPVYVPVDDRDASLVFTGAWNSDSNGSFYEGTARYTNEIGASVEFTFVGTAIRWYGQNDVNFGAAEVYVDGVLAGEVNVYGPAAAQQLLFEADGLAYGKHTIRIVCVSPVVDFDYFSYVGE
# B3: Flavonifractor plautii GalNAcDeacetylase (FpGalNAcDeAc) truncation _D1ext (Flavonifractor plautii) (protein)
# chain: B2 chain
# What was measured:
# Format in all cases: biochemical, Flavonifractor plautii
# [1] = substrate: CC(=O)N[C@H]1[C@@H](O[C@H]2[C@@H](O)[C@@H](CO)O[C@@H](O[C@H]3[C@@H](O)[C@@H](CO)O[C@@H](Oc4ccc5c(C)cc(=O)oc5c4)[C@@H]3NC(C)=O)[C@@H]2O[C@@H]2O[C@@H](C)[C@@H](O)[C@@H](O)[C@@H]2O)O[C@H](CO)[C@H](O)[C@@H]1O; experiment: Kinetic parameters of FpGalNAcDeAc full length (coupled fluorescence assay, MU release); conditions: other: 100 mM NaH2PO4, pH 7.4, 37° C.
# Procedure: (§1) All kinetic assays utilizing 4-methylumbelliferone as leaving group were performed through measurement of fluorescence. To avoid measurement errors based on the inner filter effect (Palmier 2007) standard curves were used to validate the linear range of the fluorophore.
# (§2) Michaelis-Menten parameters were determined for A antigen subtype 1penta-MU in 100 mM NaH2PO4, pH 7.4 at 37° C. using the coupled assays described previously (Kwan 2015). The assay was modified to allow detection of cleavage of the subtype 1 (and later 4), by use of BgaC (Jeong 2009) instead of BgaA (Singh 2014) as β-galactosidase. In addition, since A antigen subtype 1penta-MU contains an additional galactose, the concentration of BgaC was increased to 0.2 mg/mL to compensate for its need to cleave both the Gal-β-1,3-B-GlcNAc-β-1,3-Gal-β-MU and Gal-β-MU. Further, FpGalactosaminidase was included to allow the cleavage of the galactosamine-containing intermediate. Reaction setup in 100 μl was 3 nM FpGalNacDeacetylase (4.52 nM FpGalNacDeAc_D1ext, 3.55 nM FpGalNacDeAc_D1+2) and 0.01 mg/mL FpGalactosaminidase, 0.1 mg/mL SpHex, AfcA, 0.2 mg/mL BgaC and varying concentrations of substrate (5 μM-2.5 mM). The reactions were run as a series of four with controls (no FpGalNacDeacetylase) as duplicates. The fluorescence signal (365/435 nm) resulting from MU release by hydrolysis was monitored on a Synergy H1™ plate reader (BioTek™) and converted to concentration using MU standard concentration curves determined under identical reaction conditions. Initial rates (μM/s) were determined and plotted in Grafit 7.0 to determine the kinetic parameters.
# (§3) kcat/KM parameter were determined for A antigen subtype 1/2/4tetra-MU at pH 7.4 at 37° C. Reactions (total volume of 100 μL) were performed in black 96-plate wells and as coupled assays in 100 mM NaH2PO4 (pH 7.4) with 12 nM FpGalNAcDeacetylase 0.1 mg/mL SpHex, BgaC (BgaA for subtype II), AfcA, at varying concentrations of substrate (25 μM, 20 μM, 15 μM, 10 μM, 7.5 μM, 5 μM). The reactions were run as a series of four with controls (no FpGalNAcDeacetylase) as duplicates. The fluorescence signal (365/435 nm) resulting from MU release by hydrolysis was monitored on a Synergy H1™ plate reader (BioTek™) and converted to concentration using MU standard concentration curves determined under identical reaction conditions. Initial rates (μM/s) were determined and plotted in Grafit™ 7.0 to determine the kcat/KM (s^−1*mM^−1) parameters.
# [2] = substrate: CC(=O)N[C@H]1[C@@H](O[C@H]2[C@@H](O)[C@@H](CO)O[C@@H](O[C@H]3[C@H](O)[C@@H](CO)O[C@@H](O[C@H]4[C@@H](O)[C@@H](CO)O[C@@H](Oc5ccc6c(C)cc(=O)oc6c5)[C@@H]4O)[C@@H]3NC(C)=O)[C@@H]2O[C@@H]2O[C@@H](C)[C@@H](O)[C@@H](O)[C@@H]2O)O[C@H](CO)[C@H](O)[C@@H]1O; experiment: as above; conditions: other: 100 mM NaH2PO4, pH 7.4, 37° C.
# Procedure: as §1, §2, §3
# [3] = substrate: CC(=O)N[C@H]1[C@@H](O[C@H]2[C@@H](O)[C@@H](CO)O[C@@H](O[C@H]3[C@H](O)[C@@H](CO)O[C@@H](Oc4ccc5c(C)cc(=O)oc5c4)[C@@H]3NC(C)=O)[C@@H]2O[C@@H]2O[C@@H](C)[C@@H](O)[C@@H](O)[C@@H]2O)O[C@H](CO)[C@H](O)[C@@H]1O; experiment: as above; conditions: other: 100 mM NaH2PO4, pH 7.4, 37° C.
# Procedure: as §1, §2, §3
# [4] = substrate: CC(=O)N[C@H]1[C@H](Oc2ccc3c(C)cc(=O)oc3c2)O[C@H](CO)[C@@H](O[C@@H]2O[C@H](CO)[C@H](O)[C@H](O[C@H]3O[C@H](CO)[C@H](O)[C@H](O)[C@H]3NC(C)=O)[C@H]2O[C@@H]2O[C@@H](C)[C@@H](O)[C@@H](O)[C@@H]2O)[C@@H]1O; experiment: as above; conditions: other: 100 mM NaH2PO4, pH 7.4, 37° C.
# Procedure: as §1, §2, §3
# [5] = substrate: CC(=O)N[C@H]1[C@H](Oc2ccc3c(C)cc(=O)oc3c2)O[C@H](CO)[C@@H](O[C@@H]2O[C@H](CO)[C@H](O)[C@H](O[C@H]3O[C@H](CO)[C@H](O)[C@H](O)[C@H]3NC(C)=O)[C@H]2O[C@@H]2O[C@@H](C)[C@@H](O)[C@@H](O)[C@@H]2O)[C@@H]1O; experiment: Cleavage of A antigen Type2tetra-MU by FpGalNAcDeAc_D1min WT; conditions: other: WT, pH 7.4, 37° C.
# Procedure: as §3
# Based on structural information (not shown) and sequence alignment (not shown) FpGalNAcDeAc_D1min and FpGalNase_truncA were mutated using the QuickChange™ protocol (Zhang 2004), utilizing the primers noted in TABLE B. The mutants were purified via NiNTA and HIC columns as described above. The structural integrity of all mutants was checked via CD spectroscopy; all tested enzymes were structurally similar to their wild-type. […]
# [6] = substrate: CC(=O)N[C@H]1[C@@H](O[C@H]2[C@@H](O)[C@@H](CO)O[C@@H](O[C@H]3[C@H](O)[C@@H](CO)O[C@@H](O[C@H]4[C@@H](O)[C@@H](CO)O[C@@H](Oc5ccc6c(C)cc(=O)oc6c5)[C@@H]4O)[C@@H]3NC(C)=O)[C@@H]2O[C@@H]2O[C@@H](C)[C@@H](O)[C@@H](O)[C@@H]2O)O[C@H](CO)[C@H](O)[C@@H]1O; experiment: Kinetic parameters of FpGalNAcDeAc_D1ext (coupled fluorescence assay, MU release); conditions: other: 100 mM NaH2PO4, pH 7.4, 37° C.
# Procedure: as §1, §2
protein,measurement,setting,value
B1,kcat/Km,[1],33270 ± 2080 M⁻¹ s⁻¹
same,Km,[2],340 ± 35 µM
same,kcat,[2],4.86 s⁻¹
same,kcat/Km,[2],14280 M⁻¹ s⁻¹
same,kcat/Km,[3],23490 ± 630 M⁻¹ s⁻¹
same,kcat/Km,[4],23370 ± 710 M⁻¹ s⁻¹
B2,kcat/Km,[5],8210 ± 2070 M⁻¹ s⁻¹
B3,Km,[6],212 ± 37 µM
same,kcat,[6],5.37 s⁻¹
same,kcat/Km,[6],25230 M⁻¹ s⁻¹
